The source of these data is article PMC5807055, “Atomic Structure of Type VI Contractile Sheath from Pseudomonas aeruginosa” (Structure(London, England:1993), 2018).

B1: P. aeruginosa TssB1 (H1-T6SS sheath protein), produced in E. coli (natural protein)
chain: MGSTTSSQKFIARNRAPRVQIEYDVELYGAEKKVQLPFVMGVMADLAGKPAEPQAAVADRKFLEIDVDNFDARLKAMKPRVAFNVPNVLTGEGNLSLDITFESMDDFSPAAVARKVDSLNKLLEARTQLANLLTYMDGKTGAEEMIMKAIKDPALLQALASAPKPKDDEPQA
notes: TssB1 of the H1-T6SS cluster of Pseudomonas aeruginosa; 172 residues in total (132 traced; M1-S3 and M136-A172 not traced); also called VipA/IglA homologue; source: E. coli B834(DE3), co-produced with TssC1 from pET28-B1C1, purified as TssB1C1 tubes (size exclusion chromatography)
B2: P. aeruginosa TssC1 (H1-T6SS sheath protein), produced in E. coli (natural protein)
chain: MAELSTENLAQGQTTTEQTSEFASLLLQEFKPKTERAREAVETAVRTLAEHALEQTSLISNDAIKSIESIIAALDAKLTAQVNLIMHHADFQQLESAWRGLHYLVNNTETDEQLKIRVLNISKPELHKTLKKFKGTTWDQSPIFKKLYEEEYGQFGGEPYGCLVGDYYFDQSPPDVELLGEMAKISAAMHAPFISAASPTVMGMGSWQELSNPRDLTKIFTTPEYAGWRSLRESEDSRYIGLTMPRFLARLPYGAKTDPVEEFAFEEETDGADSSKYAWANSAYAMAVNINRSFKLYGWCSRIRGVESGGEVQGLPAHTFPTDDGGVDMKCPTEIAISDRREAELAKNGFMPLLHKKNTDFAAFIGAQSLQKPAEYDDPDATANANLAARLPYLFATCRFAHYLKCIVRDKIGSFKEKDEMQRWLQDWILNYVDGDPAHSTETTKAQHPLAAAEVVVEEVEGNPGYYNSKFFLRPHYQLEGLTVSLRLVSKLPSAKEA
notes: TssC1 of the H1-T6SS cluster of Pseudomonas aeruginosa; 498 residues in total (461 traced; M1-A37 not traced); also called VipB/IglB homologue; source: E. coli B834(DE3), co-produced with TssB1 from pET28-B1C1, purified as TssB1C1 tubes (size exclusion chromatography)

Data set [1] deals with B2. Nature of the data set: cryo-EM structure; TssB1C1 sheaths (1 mg/ml) purified from E. coli, vitrified; helical reconstruction in RELION; contracted sheath with 13-fold symmetry, 3.3 Å; SEC buffer 50 mM Tris-HCl pH 9, 250 mM NaCl, 1 mM EDTA, 5 mM DTT. The conditions noted are these: both partners purified.
Data set [2] deals with the molecule itself. The description is as above.

On to B1, for which the binding result in data set [1] is “binds”.
For B2, the binding result in data set [2] is “binds”.
